Experimental data reported in patent US20240192215A1 (E AND S HEALTHCARE, published 2024).

B1: monoclonal antibody B266-1 (antibody, human IgG1)
light: QIVLTQSPAIMSASPGEKVTMTCSASSRISYMYWYQQKPGTSPKRWIYDTSKLASGVPARFSGSGSGTSYSLTISTMEAEDAATYYCHQRSSYPTFGAGTKLELKSVAAPSVFIFPPSDEQLKSGTASVVCLLNNFYPREAKVQWKVDNALQSGNSQESVTEQDSKDSTYSLSSTLTLSKADYEKHKVYACEVTHQGLSSPVTKSFNRGEC
heavy: not shown
notes: B266 with the Fc part changed to human IgG1; also called B266-1 (Trx1-hIgG1); B266-1 (hTrx1-hIgG1)
B2: monoclonal antibody B264 (antibody, mouse IgG1, kappa, V domains shown)
VH: QVQLQQSGAELARPGASVKMSCKASGYTFTSYTMHWVKQRPGQGLEWIGYINPTSDYTNYNQKFKDKATLTADKSSSTAYMQLSSLTSEDSAVYFCASEGGFLYYFDYWGQGTTLTVSS
VL: DVLMTQTPLSLPVSLGDQASISCRSSQSIVHSNGNTYLEWYLQKPGQSPKLLIYKVSNRFSGVPDRFSGSGSGTDFTLKISRVEAEDLGVYYCFQGSHVPYTFGGGTKLEIKR
notes: also called AB264; B264 (Trx1-mIgG1)

What was measured:
Peptide_005 = biological target: T1, Peptide_005 (human); assay: peptide microarray, 5 ug/mL
T1 construct: 15-mer on microarray; not native form, recombinant insert region
T1 peptide: ADVHSQHHHHHHHHV
Procedure: (§1) 5, 1, 0.2, 0.04, 0.008 and 0.0016 μg/mL serial dilutions were incubated on a single multi-well microarray slide at 30° C. for 1 hour. The slide includes 21 individual mini-arrays (one mini-array per sample dilution).
(§2) DyLight 650 was used as a label. False-positive binding to a peptide was evaluated by performing one additional control incubation in which only a secondary antibody was applied on the same microarray slide. Before performing each step, the microarrays were washed with a washing buffer.

Peptide_004 = biological target: T2, Peptide_004 (human); assay: peptide microarray, 5 ug/mL
T2 construct: 15-mer on microarray; not native form, recombinant insert region
T2 peptide: AADVHSQHHHHHHHH
Procedure: as §1, §2

[1] = biological target: T3, human thioredoxin-1 (Trx1) (human, UniProt P10599 1-105); assay: one site - total fit (Prism) of the ELISA of panel (a); the cell has no unit, the concentrations of panel (a) are in nM; paragraph 183 prints it rounded as 1.3x10^-10 [b]
T3 construct: also called hTrx1; hTRX1
T3 sequence (looked up): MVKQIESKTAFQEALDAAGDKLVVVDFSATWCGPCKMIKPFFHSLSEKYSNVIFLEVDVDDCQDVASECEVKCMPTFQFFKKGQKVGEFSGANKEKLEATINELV
Procedure: 100 μl of a coating buffer and 100 ng of Trx1 were mixed and dispensed to each well, and then reacted at 4° C. for 16 hours or more. After the reaction solution was removed, 200 μl of PBSA was dispensed to each well and reacted at 37° C. for 120 minutes. […] After the reaction solution was removed, washing was performed by dispensing 200 μl of a washing buffer to each well. The above-described process was performed two times.
After the reaction solution was removed, washing was performed by dispensing 200 μl of a washing buffer to each well. The above-described process was performed three times.

Peptide_013 = biological target: T4, Peptide_013 (human); assay: peptide microarray, 5 ug/mL
T4 construct: 15-mer on microarray; not native form, includes recombinant insert region
T4 peptide: HHHHHHVKQIESKTA
Procedure: as §1, §2

Peptide_045 = biological target: T5, Peptide_045 (human); assay: peptide microarray, 5 ug/mL
T5 construct: 15-mer of hTrx1 on microarray
T5 peptide: SATWCGPCKMIKPFF
Procedure: as §1, §2

Peptide_025 = biological target: T6, Peptide_025 (human); assay: peptide microarray, 5 ug/mL
T6 construct: 15-mer of hTrx1 on microarray
T6 peptide: KTAFQEALDAAGDKL
Procedure: as §1, §2

Peptide_021 = biological target: T7, Peptide_021 (human); assay: peptide microarray, 5 ug/mL
T7 construct: 15-mer of hTrx1 on microarray
T7 peptide: QIESKTAFQEALDAA
Procedure: as §1, §2

Peptide_085 = biological target: T8, Peptide_085 (human); assay: peptide microarray, 5 ug/mL
T8 construct: 15-mer of hTrx1 on microarray
T8 peptide: ECEVKCMPTFQFFKK
Procedure: as §1, §2

Peptide_018 = biological target: T9, Peptide_018 (human); assay: peptide microarray, 5 ug/mL
T9 construct: 15-mer on microarray; not native form, includes recombinant insert region; also called HVKQIESKTAFQEAL
T9 peptide: HVKQIESKTAFQEAL
Procedure: as §1, §2

Peptide_084 = biological target: T10, Peptide_084 (human); assay: peptide microarray, 5 ug/mL
T10 construct: 15-mer of hTrx1 on microarray
T10 peptide: SECEVKCMPTFQFFK
Procedure: as §1, §2

Peptide_012 = biological target: T11, Peptide_012 (human); assay: peptide microarray, 5 ug/mL
T11 construct: 15-mer on microarray; not native form, includes recombinant insert region
T11 peptide: HHHHHHHVKQIESKT
Procedure: as §1, §2

Peptide_095 = biological target: T12, Peptide_095 (human); assay: peptide microarray, 5 ug/mL
T12 construct: 15-mer of hTrx1 on microarray
T12 peptide: QFFKKGQKVGEFSGA
Procedure: as §1, §2

Peptide_022 = biological target: T13, Peptide_022 (human); assay: peptide microarray, 5 ug/mL
T13 construct: 15-mer of hTrx1 on microarray
T13 peptide: IESKTAFQEALDAAG
Procedure: as §1, §2

Binder | signal (blank-control = 1) (Peptide_005) | signal (blank-control = 1) (Peptide_004) | Kd [1] [nM] | signal (blank-control = 1) (Peptide_013) | signal (blank-control = 1) (Peptide_045) | signal (blank-control = 1) (Peptide_025) | signal (blank-control = 1) (Peptide_021) | signal (blank-control = 1) (Peptide_085) | signal (blank-control = 1) (Peptide_018) | signal (blank-control = 1) (Peptide_084) | signal (blank-control = 1) (Peptide_012) | signal (blank-control = 1) (Peptide_095) | signal (blank-control = 1) (Peptide_022)
B1 | 7.63 | 6.78 |  |  |  |  |  |  |  |  |  |  | 
B2 |  |  | 0.133 | 4.87 | 4.9 | 6.49 | 2.69 | 3.87 | 6.15 | 3.79 | 4.49 | 3.44 | 5.54
